This is an account of results in PMC4057782, “tRNA synthetase counteracts c-Myc to develop functional vasculature”.

For data set [1], the target named is T1, SerRS (Homo sapiens, UniProt P49591 1-514). The data set can be described thus: EMSA; minimal binding site; EMSA: 20 mM Tris-HCl pH 8.0, 60 mM KCl, 5 mM MgCl2, 0.1 mg/ml BSA, 10 ng/ul poly(dG-dC), 1 mM DTT, 30 min, room temperature; SPR: 10 mM HEPES pH 7.4, 150 mM NaCl, 0.005% P-20; footprint: 20 mM HEPES pH 7.9, 120 mM KCl, 8 mM MgCl2, 0.2 mM EDTA, 0.5 mM DTT, 0.2 mg/ml BSA, 10 ug/ml poly(dG-dC), 5% glycerol, room temperature. Particulars: protein: recombinant; tags: C-terminal His tag (pET-20b); chain copies: 2; label: 5' 32P.

The target of data set [2] is T1, SerRS. The data set can be described thus: EMSA; interaction not affected; EMSA: 20 mM Tris-HCl pH 8.0, 60 mM KCl, 5 mM MgCl2, 0.1 mg/ml BSA, 10 ng/ul poly(dG-dC), 1 mM DTT, 30 min, room temperature; SPR: 10 mM HEPES pH 7.4, 150 mM NaCl, 0.005% P-20; footprint: 20 mM HEPES pH 7.9, 120 mM KCl, 8 mM MgCl2, 0.2 mM EDTA, 0.5 mM DTT, 0.2 mg/ml BSA, 10 ug/ml poly(dG-dC), 5% glycerol, room temperature. Particulars: protein: recombinant; tags: C-terminal His tag (pET-20b); chain copies: 2; label: 5' 32P.

Data set [3] deals with T1, SerRS. The data set can be described thus: SPR; HBS-EP pH 7.4, 1:1 fit; EMSA: 20 mM Tris-HCl pH 8.0, 60 mM KCl, 5 mM MgCl2, 0.1 mg/ml BSA, 10 ng/ul poly(dG-dC), 1 mM DTT, 30 min, room temperature; SPR: 10 mM HEPES pH 7.4, 150 mM NaCl, 0.005% P-20; footprint: 20 mM HEPES pH 7.9, 120 mM KCl, 8 mM MgCl2, 0.2 mM EDTA, 0.5 mM DTT, 0.2 mg/ml BSA, 10 ug/ml poly(dG-dC), 5% glycerol, room temperature. The following applies: protein: recombinant; tags: C-terminal His tag (pET-20b); chain copies: 2; label: biotin; 3' overhang 3 nt on strand 1.

For data set [4], the target named is c-Myc;MAX (Homo sapiens;Homo sapiens, UniProt P01106;P61244 16-454;1-160, |). The data set can be described thus: EMSA; competed off by SerRS at same concentrations; EMSA: 20 mM Tris-HCl pH 8.0, 60 mM KCl, 5 mM MgCl2, 0.1 mg/ml BSA, 10 ng/ul poly(dG-dC), 1 mM DTT, 30 min, room temperature; SPR: 10 mM HEPES pH 7.4, 150 mM NaCl, 0.005% P-20; footprint: 20 mM HEPES pH 7.9, 120 mM KCl, 8 mM MgCl2, 0.2 mM EDTA, 0.5 mM DTT, 0.2 mg/ml BSA, 10 ug/ml poly(dG-dC), 5% glycerol, room temperature. The following applies: protein: recombinant;recombinant; tags: C-terminal His tag;C-terminal His tag; label: 5' 32P.

For data set [5], the target named is T1, SerRS. The data set can be described thus: EMSA; 5 mM Mg2+; EMSA: 20 mM Tris-HCl pH 8.0, 60 mM KCl, 5 mM MgCl2, 0.1 mg/ml BSA, 10 ng/ul poly(dG-dC), 1 mM DTT, 30 min, room temperature; SPR: 10 mM HEPES pH 7.4, 150 mM NaCl, 0.005% P-20; footprint: 20 mM HEPES pH 7.9, 120 mM KCl, 8 mM MgCl2, 0.2 mM EDTA, 0.5 mM DTT, 0.2 mg/ml BSA, 10 ug/ml poly(dG-dC), 5% glycerol, room temperature. Particulars: protein: recombinant; tags: C-terminal His tag (pET-20b); chain copies: 2; label: 5' 32P.

The target in data set [6] is MAX (Homo sapiens, UniProt P61244 1-160). The data set can be described thus: EMSA; MAX/MAX homodimer, not displaced by SerRS; EMSA: 20 mM Tris-HCl pH 8.0, 60 mM KCl, 5 mM MgCl2, 0.1 mg/ml BSA, 10 ng/ul poly(dG-dC), 1 mM DTT, 30 min, room temperature; SPR: 10 mM HEPES pH 7.4, 150 mM NaCl, 0.005% P-20; footprint: 20 mM HEPES pH 7.9, 120 mM KCl, 8 mM MgCl2, 0.2 mM EDTA, 0.5 mM DTT, 0.2 mg/ml BSA, 10 ug/ml poly(dG-dC), 5% glycerol, room temperature. The following applies: protein: recombinant; tags: C-terminal His tag; chain copies: 2; label: 5' 32P.
MAX, sequence (P61244 whole entry): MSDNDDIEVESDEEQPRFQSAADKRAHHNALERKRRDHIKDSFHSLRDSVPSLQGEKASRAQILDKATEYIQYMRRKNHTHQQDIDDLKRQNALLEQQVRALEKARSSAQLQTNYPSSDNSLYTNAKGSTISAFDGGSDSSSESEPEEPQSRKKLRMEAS

T1 sequence (P49591 whole entry): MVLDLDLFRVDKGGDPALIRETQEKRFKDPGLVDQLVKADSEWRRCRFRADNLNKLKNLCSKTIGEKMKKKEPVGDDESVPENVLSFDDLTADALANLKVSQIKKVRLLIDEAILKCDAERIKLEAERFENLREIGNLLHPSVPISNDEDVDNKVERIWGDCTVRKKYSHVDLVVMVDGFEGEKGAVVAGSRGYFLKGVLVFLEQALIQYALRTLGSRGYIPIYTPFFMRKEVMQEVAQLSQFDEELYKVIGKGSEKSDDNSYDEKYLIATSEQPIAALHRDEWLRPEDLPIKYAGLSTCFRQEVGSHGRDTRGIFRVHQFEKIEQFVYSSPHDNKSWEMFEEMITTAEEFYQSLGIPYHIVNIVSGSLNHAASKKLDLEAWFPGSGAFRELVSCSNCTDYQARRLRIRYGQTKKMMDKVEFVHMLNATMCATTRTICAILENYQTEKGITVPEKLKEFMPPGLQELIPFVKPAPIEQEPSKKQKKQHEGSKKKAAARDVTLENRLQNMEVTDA
c-Myc;MAX, sequence (P01106 16-454, chain 1 of 2): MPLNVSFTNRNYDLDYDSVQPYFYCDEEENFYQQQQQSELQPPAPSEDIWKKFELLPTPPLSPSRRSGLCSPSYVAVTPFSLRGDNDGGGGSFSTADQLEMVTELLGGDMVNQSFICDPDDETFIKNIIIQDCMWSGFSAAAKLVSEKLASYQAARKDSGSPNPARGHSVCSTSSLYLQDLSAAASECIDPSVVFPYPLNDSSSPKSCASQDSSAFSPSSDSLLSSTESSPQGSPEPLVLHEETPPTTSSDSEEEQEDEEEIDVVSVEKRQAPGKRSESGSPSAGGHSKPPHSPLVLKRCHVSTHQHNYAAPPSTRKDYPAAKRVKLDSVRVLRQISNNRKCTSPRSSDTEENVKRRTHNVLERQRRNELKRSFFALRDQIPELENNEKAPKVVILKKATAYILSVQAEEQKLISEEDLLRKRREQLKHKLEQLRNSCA
c-Myc;MAX, sequence (P61244 whole entry, chain 2 of 2): as the sequence (P61244 whole entry) above

B1: VEGFA minimal SerRS site (-59 to -38) (dsDNA)
DNA 1: GGGCGGAGCCATGCGCCCCCCC
DNA 2: GGGGGGGCGCATGGCTCCGCCC
For B1, the binding result in data set [1] was “binds”.

B2: 27-bp E-box double mutant CTTACG (dsDNA)
DNA 1: GGCGGGGCGGAGCCTTACGCCCCCCCC
DNA 2: GGGGGGGGCGTAAGGCTCCGCCCCGCC
Turning to B2, the binding result in data set [2] is listed as “binds”.

B3: VEGFA promoter SPR duplex (dsDNA)
DNA 1: GGCGGGGCGGAGCCATGCGCCCCCCCCTTTATA
DNA 2: AAAGGGGGGGGCGCATGGCTCCGCCCCGCC
modifications: 3' biotin on strand 1
For B3, in data set [3], the Kd turned out to be 265 nM.

B4: VEGFA promoter 27-bp (-62 to -36) (dsDNA)
DNA 1: GGCGGGGCGGAGCCATGCGCCCCCCCC
DNA 2: GGGGGGGGCGCATGGCTCCGCCCCGCC
Consider B4, for which the binding result in data set [4] and in data set [6] was “binds” each time. Further, the Kd in data set [5] stood at 212 nM.
